From patent publication US20250059284A1 (AGENX, published 2025)
Changes are numbered by the printed parent chain.

T1: human Gal10-His (human, UniProt Q05315 2-142, limits assumed)
T1 construct: also called human galectin-10; not shown: His tag
T1 sequence: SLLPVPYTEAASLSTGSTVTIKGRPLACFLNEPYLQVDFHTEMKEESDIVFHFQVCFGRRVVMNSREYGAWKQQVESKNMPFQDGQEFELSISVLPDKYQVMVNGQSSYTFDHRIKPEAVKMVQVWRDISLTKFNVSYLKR

T2: recombinant galectin-10 crystals (Charcot-Leyden crystals) (UniProt Q05315 2-142, limits assumed)
T2 sequence (looked up): T1 sequence

T3: galectin-10 (Gal10), species and tag not stated for the assay (UniProt Q05315 2-142, limits assumed)
T3 construct: human is likely, since the human-specific 1D11 is in the panel
T3 sequence (looked up): T1 sequence

B1: g24F02_N53A human Fab (Fab, V domains shown)
VH: EVQLLESGGGLVQPGGSLRLSCAASGFTFSSYAMSWVRQAPGKGLEWVSAINAGGGSTSYADSVKGRFTISRDNSKNTLYLQMNSLRAEDTAVYYCAKGLRVGVLGFDYWGQGTLVTVSS
VL: SYELTQPLSVSVALGQTARITCDGNNIGSKSAQWYQQKPGQAPVLVIYADEYRPEGIPERFSGSNSGNTATLTISRAQAGDEADYYCQVWDGSAAVFGGGTQLTVL
notes: Human Fab backbone
B2: g24F02 human Fab (Fab, V domains shown)
VH: B1 VH with A53N
VL: B1 VL
notes: Germlined clone in human Fab backbone
B3: g20H09 human Fab (Fab, V domains shown)
VH: EVQLLESGGGLVQPGGSLRLSCAASGFTFRSYDMSWVRQAPGKGLEWVSAIKWHRITYYADSVKGRFTISRDNSKNTLYLQMNSLRAEDTAVYYCATTHGIGTLGFGSWGQGTLVTVSS
VL: B1 VL
notes: Germlined clone in human Fab backbone; also called clone 20H09
B4: g23H09 human Fab (Fab, V domains shown)
VH: EVQLLESGGGLVQPGGSLRLSCAASGFTFRSYDMSWVRQAPGKGLEWVSAIAQFQHWTYYADSVKGRFTISRDNSKNTLYLQMNSLRAEDTAVYYCATTHGIGTLGFGSWGQGTLVTVSS
VL: B1 VL
notes: Germlined clone in human Fab backbone; also called clone 23H09

Key:
[1] = target: T1, human Gal10-His; assay: SPR Biacore 3000; human Gal10-His captured on anti-His CM5 chip
Experimental: The binding properties of the selected Fab clones to human Gal10 were analyzed via a capture method established on Biacore 3000. It was decided to apply two concentrations of the selected Fab clones on human Gal10-His immobilized on a CM5 chip coated with a monoclonal anti-His.

[2] = target: T1, human Gal10-His; assay: SPR Biacore 3000; human Gal10-His captured on anti-His CM5 chip; Fab at 30 nM
Experimental: (§1) The binding properties of the selected Fab clones to human and cynomolgus Gal10 was analyzed via a capture method established on Biacore 3000. For this purpose, two approaches were used. In the first one, two concentrations of the selected Fab clone were applied on cynomolgus (WGS isoform) Gal10-His capture on a CM5 chip coated with a monoclonal anti-His. In the second approach, a serial dilution was applied on human or cynomolgus (WGS isoform) Gal10 His on the same set up.

[3] = target: T4, cynomolgus Gal10-His (WGS isoform) (cynomolgus); assay: SPR Biacore 3000; cynomolgus Gal10-His (WGS isoform) captured on anti-His CM5 chip; Fab at 30 nM
T4 construct: also called cyno Gal10; cynomolgus antigen
Experimental: as §1

[4] = target: T2, recombinant galectin-10 crystals …; assay: cell-based or functional assay
[5] = target: T3, galectin-10 (Gal10), species and tag …; assay: SPR (Biacore 3000), binding activity of the sample stored 4 weeks at +5 C and nebulized, relative to reference sample T0; criterion <20% loss
Experimental: The functional active concentration of the nebulized solutions was assessed by SPR on a Biacore 3000 instrument. All samples were evaluated with methods meeting the standard qualification criteria. Aliquots were tested at predefined test concentrations against titration curves from reference samples (TO) and in the presence of quality control (QC) samples.

Binder	fold better off rate than g7B07 [1]	Amplitude R0 (RU) 30 nM [2]	Amplitude R0 (RU) 30 nM [3]	EC50, Gal10 crystal dissolution, stressed material (T4W post-nebulization, after 2 hour incubation), assay 2 [4]	EC50, Gal10 crystal dissolution, unstressed material (T0, after 2 hour incubation), assay 2 [4]	relative activity in recombinant Gal10 crystal dissolution, T4W post-nebulization sample relative to unstressed material T0 (at 2 hour incubation) [4]	relative activity by SPR for T4W post-nebulization sample relative to reference sample T0 [5]	EC50, Gal10 crystal dissolution, stressed material (T4W post-nebulization, after 2 hour incubation), assay 1 [4]	EC50, Gal10 crystal dissolution, unstressed material (T0, after 2 hour incubation), assay 1 [4]	relative activity in recombinant Gal10 crystal dissolution, T4W post-nebulization sample relative to unstressed material T0 (at 2 hour incubation), assay 1 [4]	relative activity in recombinant Gal10 crystal dissolution, T4W post-nebulization sample relative to unstressed material T0 (at 2 hour incubation), assay 2 [4]
B1	3.5 fold	647 RU	544 RU	159 µg/mL	191 µg/mL	120%	111%				
B2		644 RU	566 RU								
B3						66%	97%	395 µg/mL	260 µg/mL		
B4	1.9 fold	722 RU	589 RU	209 µg/mL	190 µg/mL		119%	297 µg/mL	252 µg/mL	85%	91%
